Results published in patent publication US20230119066A1 (Bristol-Myers Squibb, published 2023).

B1: mAb 4A19, nonfucosylated humanized IgG1 anti-hCCR8 (antibody, V domains shown)
VH: QVQLVQSGAEVKKPGASVKVSCKASGYTFTDSEMHWVRQATGQGLEWMGAIQPETGGTAYNQKFKARVTMTRDTSISTAYMELSSLRSEDTAVYYCARRRRNFDYWGQGTLVTVSS
VL: DIVMTQTPLSLSVTPGQPASISCRSSQSLFHSSGNTYLHWYLQKPGQPPQLLIYKVSNRFSGVPDRFSGSGSGTDFTLKISRVEAEDVGVYYCSQSTHVPFTFGQGTKLEIKR
notes: hIgG1-nf, expressed in Expi293 Fut8-/- cells; also called CCR8-nf; A419
B2: mAb 14S15, nonfucosylated chimeric mouse-human anti-hCCR8 (antibody, human IgG1, kappa, V domains shown)
VH: EVQLVEFGGGLVQPKGSLKLSCVVSGFRFNPYAMNWVRQAPGKGLEWLGRIRSKSNNYETYYADSVKDRFIISRDDSQKMVYLQMNNVKTEDTAMYYCVGYSDLYVLDYWGQGTSVTVSS
VL: DIVMTQAAPSVPVTPGESVSISCRSSKSLLHSNGNTFLYWFLQRPGQSPQLLIYRMSNLASGVPHRFSGSGSGTAFTLRISRVEAEDVGVYYCMQHLEYPFTFGSGTKLEIKR
notes: Chimeric version with nf human IgG1 Fc; also called 14S15-IgG1-nf; CCR8.2
B3: mAb 12F27 (antibody, V domains shown)
VH: QVQLVESGGGVVQPGRSLRLSCAASGFSFRSYGIHWVRQAPGKGLEWVAVISYEGSNKRYADSVKGRFTISRDNSKSTLSLQMNSLRAEDTAVYYCAKGRRPSGEGAFDIWGQGTMVTVSS
VL: DIQMTQSPSSLSASVGDRVTITCRASQGISSWLAWYQQKPEKAPKSLIYAASSLQSGVPSRFSGSGSGTDFTLTISSLQPEDFATYYCQQYNSFPPTFGQGTKVEIKR
B4: 9G10, starting mouse anti-CCR8 mAb of 14S15 and 14S15h (antibody, V domains shown)
VH: B2 VH
VL: DIVMTQAAPSVPVTPGESVSISCRSSKSLLHSNGNTFLYWFLQRPGQSPQLLIYRMSNLASGVPHRFSGSGSGTAFTLRISRVEAEDVGVYYCMQHLEYPFTFGSGTKLEIK
notes: also called starting mouse Ab; starting mouse mAb
B5: 14S15h Fab fragment (Fab, V domains shown)
VH: EVQLVESGGGLVKPGGSLRLSCAASGFRFGPYAMNWVRQAPGKGLEWVGRIRSKSNNYETYYADSVKDRFTISRDDSKNTLYLQMNSLKTEDTAVYYCVGYSDLYVLDYWGQGTLVTVSS
VL: DIVMTQTPPSLPVNPGEPASISCRSSKSLLHSQGNTFLYWYLQKPGQSPQLLIYRMSNLASGVPDRFSGSGSGSDFTLKISWVEAEDVGVYYCMQHLEYPFTFGPGTKVDIK
notes: Tested as a Fab fragment whose constant parts are not delimited

What was measured:
[1] = target: T1, human C-C Motif Chemokine Receptor 8 (hCCR8) (human, UniProt P51685 1-355); experiment: cell-based or functional assay
[2] = target: T1, human C-C Motif Chemokine Receptor 8 …; experiment: cell-based or functional assay; remark: listed apart in the source
[3] = target: T1, human C-C Motif Chemokine Receptor 8 …; experiment: cell-based or functional assay; remark: listed apart in the source
[4] = target: T1, human C-C Motif Chemokine Receptor 8 …; experiment: flow cytometry, binding to activated human Tregs, median EC50
Experimental: Activated Tregs prepared from previously isolated and expanded Tregs were stimulated for 2 days with anti-CD3/CD28 activation beads (ThermoFisher) in the presence of 100 units/ml of recombinant human IL-2. The Abs were serially diluted from a starting concentration of 30 μg/ml. An appropriate PE-conjugated secondary Ab (Jackson ImmunoResearch) against the primary anti-CCR8 Ab was applied, incubated for 15 min at 4° C., and then washed off. EC₅₀ values for the binding of selected anti-CCR8 mAbs to activated Tregs, was calculated using GraphPad Prism (GraphPad Software, La Jolla, Calif.).
A select subset of Abs having EC₅₀ values ranging from picomolar to nanomolar is presented in FIG. 11B, and the respective EC₅₀ values are provided in Table 4.

[5] = target: T2, CCR8 N-terminal peptide (SPR of Example 10) (human, sulfation not stated in Example 10; the panning peptide was biotinylated); experiment: SPR; starting mouse Ab 9G10, before humanization
T2 construct: also called biotinylated CCR8 N-terminal peptide from Anaspec

[6] = target: T2, CCR8 N-terminal peptide (SPR of Example …); experiment: SPR; 14S15h Fab fragment, humanized, affinity-matured

Binder | IC50 (nM), blockade of calcium flux on CCR8-expressing cells [1] [nM] | Median EC50 (pM), ADCC killing of activated Tregs by allogeneic NK cells [2] [pM] | EC50 (pM), cross-linking of CD16 expression reporter cells [3] [pM] | EC50 [4] [nM] | Kd [5] [nM] | Kd [6] [nM]
B1 | 0.465 | 13.1 | 0.69 | 1.65 |  | 
B2 | 1.33 | 39.7 | 8.02 | 0.252 |  | 
B3 |  | 304000 |  |  |  | 
B4 |  |  |  |  | 1.4 | 
B5 |  |  |  |  |  | 0.64
